Patent publication US20210032331A1 (PHANES THERAPEUTICS, published 2021)
Blank lines part the entries; values can stand above or below the binder they belong to.

Experiments:
B5/IgG4 [1] = biological target: T1, B5/IgG4; test: ELISA peptide competition: peptide preincubated with B5/IgG4, competitor hLAG3-mFc; capture on anti-human IgG, anti-mouse IgG-HRP
T1 construct: Chimeric: mouse VH and VL with human IgG4 heavy chain and kappa light chain constant regions; also called B5 (human IgG4 heavy chain and kappa light chain chimeric)
Method: (§1) FIGS. 5A-5D show the effect of competition peptides on LAG-3 binding to anti-LAG-3 mAbs. […] B5/IgG4 was preincubated with a competition peptide for 30 minutes. Then human LAG-3 extracellular domain (ECD) fused to mouse Fc (hLAG3-mFc) was added (the final peptide concentration was 600-fold that of hLAG3-mFc) and the mixture was incubated for 60 minutes before being added to an ELISA plate coated with anti-human IgG. The incubation was carried out at 4° C. overnight. After washing, the hLAG3-mFc bound to the immobilized B5/IgG4 on the ELISA plate was detected by adding anti-mouse IgG conjugated to horseradish peroxidase (HRP) and incubating for 60 minutes. Then, after washing, the ELISA was developed using One-step Detection Solution and measured as the absorbance at 450 nm.
(§2) Anti-human IgG in carbonate coating buffer was coated on an ELISA plate at 4° C. (50 μL/well at 1 μg/mL) overnight. In each well of a separate plate, a chimeric version of a given anti-LAG-3 mAb (50 μL/well at 1.4 nM) and a competition peptide (50 μL/well at various concentrations as indicated in the figures) were mixed and incubated for 30 minutes at room temperature. Then human LAG-3 extracellular domain (ECD) fused to mouse Fc (hLAG3-mFc) was added to each well (50 μL/well at 2 nM) and the final mixture was incubated at room temperature for 60 minutes before added to the ELISA plate (50 μL/well) for another 60-minute incubation. The final incubation after adding the mixture to the ELISA plate was also performed at 4° C. overnight in some assays. The plate was washed and the binding of hLAG3-mFc to the immobilized anti-LAG-3 mAb was detected by adding anti-mouse IgG conjugated to horseradish peroxidase ([…]) (ThermoFisher Scientific, Cat#: A16084; Waltham, Mass.) and incubating for 60 minutes.

[2] = biological target: T2, full-length human LAG-3 on stably transfected CHO-S cells (human, UniProt P18627 23-525); test: FACS, CHO-S cells stably transfected with full-length human LAG-3, PE anti-mouse IgG
T2 construct: also called hLAG3
T2 sequence: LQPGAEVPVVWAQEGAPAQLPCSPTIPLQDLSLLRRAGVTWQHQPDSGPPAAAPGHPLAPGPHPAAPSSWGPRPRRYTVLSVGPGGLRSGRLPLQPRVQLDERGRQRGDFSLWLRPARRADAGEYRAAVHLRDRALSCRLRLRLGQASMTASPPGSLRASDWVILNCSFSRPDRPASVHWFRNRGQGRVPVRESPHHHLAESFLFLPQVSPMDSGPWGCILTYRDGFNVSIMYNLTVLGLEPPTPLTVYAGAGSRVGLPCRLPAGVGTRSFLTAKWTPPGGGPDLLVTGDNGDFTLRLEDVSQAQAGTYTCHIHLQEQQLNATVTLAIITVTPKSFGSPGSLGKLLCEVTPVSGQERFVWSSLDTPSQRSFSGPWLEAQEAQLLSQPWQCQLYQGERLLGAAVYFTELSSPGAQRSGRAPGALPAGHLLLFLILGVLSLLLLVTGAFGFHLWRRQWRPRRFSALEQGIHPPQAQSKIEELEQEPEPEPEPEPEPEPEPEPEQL
Method: CHO-S cells stably transfected with full-length human LAG-3 were transferred to a 96-well plate. Around 200,000 cells were incubated with either purified chimeric anti-LAG-3 mAbs (variable regions of mouse mAbs fused to the constant regions of human IgG1 heavy chain and kappa light chain, respectively) or purified mouse anti-LAG-3 mAbs from hybridoma supernatants at various concentrations for 15 minutes at 4° C. Cells were then centrifuged at 1,000 rpm for 5 minutes and washed with FACS buffer (PBS supplemented with 5% BSA) three times. For the cells treated with the chimeric antibodies, the cells were then incubated with PE-conjugated goat anti-human IgG polyclonal antibodies and incubated on ice for another 15 minutes; for the cells treated with mouse mAbs, the cells were incubated with PE-conjugated goat anti-mouse IgG polyclonal antibodies and incubated on ice for another 15 minutes. Cells were then washed with FACS buffer three times and then resuspended in FACS buffer containing 0.1 μg/ml PI (propidium iodide) for live/dead cell gating. Cells were then run through the FACS Caliber instrument and the data were analyzed by the Flowjo software. Results of the FACS binding analysis of the mouse anti-LAG-3 mAbs (B1, B2, B3, B4, B5, B6, B7, B8, B9, B10, B11, B12, and B13) are provided in FIGS. 1A-1B.

human LAG-3(ECD)-huFc = biological target: T3, human LAG-3(ECD)-huFc (human, UniProt P18627 23-450); test: SPR (Biacore): mAb from hybridoma supernatant captured on anti-mouse IgG CM5 chip, human LAG-3(ECD)-huFc 50-400 nM injected
T3 construct: also called Fc-tagged human LAG-3(ECD)-huFc; not shown: human Fc (huFc) at the C-terminus
T3 sequence: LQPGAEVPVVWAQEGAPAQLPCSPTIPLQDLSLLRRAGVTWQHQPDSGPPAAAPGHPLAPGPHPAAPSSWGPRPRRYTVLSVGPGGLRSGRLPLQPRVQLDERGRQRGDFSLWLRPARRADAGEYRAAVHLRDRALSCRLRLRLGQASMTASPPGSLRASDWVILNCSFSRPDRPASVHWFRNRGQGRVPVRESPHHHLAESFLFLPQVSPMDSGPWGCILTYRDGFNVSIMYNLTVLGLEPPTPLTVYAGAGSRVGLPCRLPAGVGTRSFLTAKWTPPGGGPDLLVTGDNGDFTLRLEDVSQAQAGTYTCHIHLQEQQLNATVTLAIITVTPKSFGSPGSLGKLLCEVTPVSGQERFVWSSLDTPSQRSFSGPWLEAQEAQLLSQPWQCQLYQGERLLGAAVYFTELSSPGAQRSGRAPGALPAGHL
Method: Anti-mouse IgG antibodies were immobilized via amine coupling on CM5 chip surface. Anti-LAG-3 mAbs in hybridoma supernatants were captured on the chip surface and a series of concentrations (50-400 nM) of human LAG-3(ECD)-huFc protein were injected and passed through the captured surface. The on and off rates for antibody-antigen binding were measured, curve fitted and calculated.

[3] = biological target: T4, BG29 (human IgG4 heavy chain and kappa light chain chimeric); test: ELISA peptide competition: peptide preincubated with chimeric IgG4 BG29, competitor hLAG3-mFc; capture on anti-human IgG, anti-mouse IgG-HRP
T4 construct: Chimeric: mouse VH and VL with human IgG4 heavy chain and kappa light chain constant regions; also called chimeric BG29
Method: as §1, §2

human LAG-3(ECD)-mFc = biological target: T5, human LAG-3(ECD)-mFc (human, UniProt P18627 23-450); test: FACS blocking assay: mAb preincubated with LAG-3(ECD)-mFc (1 µg/mL), blocked ligand MHC class II on Daudi cells, PE anti-mouse Fc
T5 construct: also called hLAG3-mFc; human LAG-3 extracellular domain (ECD) fused to mouse Fc; not shown: mouse Fc
T5 sequence: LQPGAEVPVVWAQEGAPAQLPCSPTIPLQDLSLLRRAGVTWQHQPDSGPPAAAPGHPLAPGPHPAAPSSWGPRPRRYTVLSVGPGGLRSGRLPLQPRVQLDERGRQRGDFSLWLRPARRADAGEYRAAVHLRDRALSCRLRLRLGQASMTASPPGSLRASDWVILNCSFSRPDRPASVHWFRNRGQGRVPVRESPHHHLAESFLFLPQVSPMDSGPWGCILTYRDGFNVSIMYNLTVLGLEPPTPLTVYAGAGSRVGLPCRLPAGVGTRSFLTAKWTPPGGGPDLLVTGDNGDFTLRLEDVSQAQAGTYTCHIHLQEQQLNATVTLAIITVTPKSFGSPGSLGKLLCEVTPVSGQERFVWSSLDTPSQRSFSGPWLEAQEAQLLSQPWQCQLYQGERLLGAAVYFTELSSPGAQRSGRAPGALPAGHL
Method: FIGS. 4A-4D show inhibition of human LAG-3 binding to MHC class II molecules by select anti-LAG-3 mAbs. An in vitro binding assay was performed using recombinant LAG-3(ECD)-mFc and Daudi cells which express human MHC class II molecules. […] The binding of LAG-3(ECD)-mFc to Daudi cells in the presence of anti-LAG-3 mAbs or a control mAb was analyzed by FACS.
Human Daudi cells were cultured in RPMI+10% FBS. Human LAG-3(ECD)-mFc protein (human LAG-3 ECD fused to mouse Fc) at 1 μg/ml final concentration was incubated with purified mouse, humanized, or chimeric anti-LAG-3 mAbs at various concentrations for 15 minutes at 4° C. The mixture was then added to 100,000 human Daudi cells in a 96-well round bottom plate, mixed and incubated for 15 minutes on ice. Cells were then centrifuged at 1,000 rpm for 5 minutes and washed with FACS buffer (PBS supplemented with 5% BSA) three times. The cells were then incubated with PE-conjugated goat anti-mouse Fc polyclonal antibodies on ice for 15 minutes, washed with FACS buffer three times and then resuspended in FACS buffer containing 0.1 μg/ml PI (propidine iodine) for live/dead cell gating. Cells were then run through the FACS Caliber instrument and the data were analyzed by the Flowjo software. Results of the inhibition of LAG-3 binding to Daudi cells by chimeric mAbs B1C, B3C, B4C, BSC, B9C, and B11C are shown in FIG. 4B.

[4] = biological target: T6, B12 (human IgG1 heavy chain and kappa light chain chimeric); test: ELISA peptide competition: peptide preincubated with chimeric IgG1 B12, competitor hLAG3-mFc; capture on anti-human IgG, anti-mouse IgG-HRP
T6 construct: Chimeric: mouse VH and VL with human IgG1 heavy chain and kappa light chain constant regions
Method: as §1, §2

B5/IgG4 [5] = biological target: T1, B5/IgG4; test: ELISA peptide competition: peptide preincubated with B5/IgG4, competitor hLAG3-mFc; peptide at 600-fold hLAG3-mFc; capture on anti-human IgG, anti-mouse IgG-HRP
Method: as §1, §2

[6] = biological target: T4, BG29 (human IgG4 heavy chain and kappa …); test: ELISA peptide competition: peptide preincubated with chimeric IgG4 BG29, competitor hLAG3-mFc; peptide at 200-fold hLAG3-mFc; capture on anti-human IgG, anti-mouse IgG-HRP
Method: as §1, §2

B1: BG27 (antibody, V domains shown)
VH: QAYLQQSGADLVRPGASVKMSCKASGYTFTSYDMHWVKQTPRQGLEWIGAIYPGNGDASYNQKFKGKATLTVDKASSTAFMQLSSLTSEDSAVYFCARGDYGNYVWFAYWGQGTLVTVSA
VL: DVVMTQTPLSLPVSLGDQASISCRSSQTIVHSNRYTYLEWYLQKPGQSLKLLIYGVSNRFSGVPDRFSGSGSGTDFTLKISRVEAEDMGVYYCFQGTHVPPTFGAGTKLELK
notes: Mouse mAb from hybridoma; also called mouse anti-LAG-3 mAb BG27
EC50 (read off the curve) [2]: ~0.3 µg/mL

B2: B9 (antibody, V domains shown)
VH: EVQLRQSGPVLVKPGASVKMSCKASGYTFTGYYMNWVKQSHGKSLEWLAVINPYNGDTAYNRKFKGRATLTVDKSSSTAYMELNRLTSEDSAVYYCVRDDGYHVRYFDVWGTGTTVTVSS
VL: DIQMTQSPSSLSASLGERVSLTCRASQDISDSLCWLQQKPDGTIKRLIYSTSTLDSGVPKRFSGSRSGSDYSLTISSLESEDFADYYCLQYASSPPTFGGGTKLEIK
notes: Mouse mAb from hybridoma; also called mouse anti-LAG-3 mAb B9
Kd (human LAG-3(ECD)-huFc): 1.53 nM
EC50 (read off the curve) [2]: ~0.2 µg/mL

Binder: APGHPLAP (also called peptide 6-13) [6-13]
binding result [3]: no binding (tested: 200-fold hLAG3-mFc)

Binder: PGHPLAPG (also called peptide 7-14) [7-14]
binding result [3]: no binding (tested: 200-fold hLAG3-mFc)

B3: BG29 (antibody, V domains shown)
VH: QIQLQQSGPEVVKPGASVRISCKASGYTFSDYHINWVKQKPGQGLEWIGWIYPGRGDPEYNEKFKGKATLTVDRSASTAYMQLSSLTSEDTSVYFCEIYYGNYIDYWGQGTTLTVSS
VL: DIVMTQAAPSVPVTPGESVSISCRSSKSLLHSDGKTYLYWFLQRPGQSPQRLIYYMSNLASGVPDRFSGRGSGTDFTLRISRVEAEDVGVYYCMQSLEYPWTFGGGTKLEIK
notes: Mouse mAb from hybridoma; also called mouse anti-LAG-3 mAb BG29
EC50 (read off the curve) [2]: ~0.2 µg/mL

B4: BG33 (antibody, V domains shown)
VH: QIQLQQSGPEVVKPGASVKISCKASGYTFSDYHINWVKQKPGQGLEWIGWIYPGRGNPEYNEKFKGKATLTVDRSANTAYMQLSSLTSEDSSVYFCEIYYGNYLDYWGQGTTLTVSS
VL: DIVMTQAAPSVPVTPGESVSISCRSSKSLLHSDGKTYLYWFLQRPGQSPQRLIYYMSNLASGVPDRFSGRGSGTDFTLRISRVEAEDVGVYYCMQSLEYPWTFGGGTKLEIK
notes: Mouse mAb from hybridoma; also called mouse anti-LAG-3 mAb BG33
EC50 (read off the curve) [2]: ~0.4 µg/mL

B5: B12 (antibody, V domains shown)
VH: EVKLLESGGSLVQPGGSLKLSCAASGFDFSRYWMSWVRQAPGKGLEWIGEINPDSSTINYTPSLRDEFIISRDNAKNTLFLQMSKVISEDTALYYCARITSGYYFDYWGQGTTLTVSS
VL: DVVMTQTPLSLPVSLGDQASISCRSSQTIVYSNGNTYLYWYLQKPGQSPKLLIYRVSNRFPGVPDRFSGSGSGTDFTLKISGVEAEDMGVYYCFQGTHVPFTFGSGTKLEMK
notes: Mouse mAb from hybridoma; also called mouse anti-LAG-3 mAb B12
binding result (human LAG-3(ECD)-mFc): binds
binding result [2]: binds

The remaining lines, values ahead:

binding result (B5/IgG4 [1]): no binding (tested: 600-fold hLAG3-mFc)
Binder: GPPAAAPGHPL (also called peptide 1-11) [1-11]

binding result [4]: no binding (tested: 600-fold hLAG3-mFc)
binding result [3]: no binding (tested: 200-fold hLAG3-mFc)
Binder: APGHPLAPG (also called peptide 6-14) [6-14]

binding result [3]: no binding (tested: 200-fold hLAG3-mFc)
binding result (B5/IgG4 [5]): binds
Binder: GPPAAAPGHPLA (also called peptide 1-12) [1-12]

binding result [4]: no binding (tested: 600-fold hLAG3-mFc)
binding result [6]: binds
Binder: AAAPGHPLAPG (also called peptide 4-14) [4-14]

binding result [4]: no binding (tested: 600-fold hLAG3-mFc)
binding result [6]: binds
Binder: AAPGHPLAPG (also called peptide 5-14) [5-14]
